Tests used:
Assay in all cases: SPR (Biacore T200), His-captured receptor on CM5 chip, ADC as analyte
[1] = biological target: T1, His-tagged recombinant human FcγRIA (human, UniProt P12314 16-288, limits assumed)
T1 construct: Captured on a CM5 chip by the Biacore HIS capture kit; also called human FCγRIA (CD64); not shown: His tag
Experimental: (§1) ADCs described in Example 2 were analysed for their ability to bind to human Fcγ receptors by surface plasmon resonance using Biacore.
(§2) Briefly, a Biacore HIS capture kit (Cytivia, Cat. #28995056) was employed to immobilize His-tagged recombinant human Fcγ receptor ligand (FcγRIA, FcγRIIA or FcγRIIIA) onto the surface of a CM5 sensor chip. […] Data capture and analysis were preformed using Biacore T200 according to manufacturer's recommendations for analyzing high-affinity antigen-antibody kinetics. Responses from all steps were reference cell-subtracted, and zero concentration-corrected to normalize for systematic disturbances. The resulting association and dissociation curves were fitted with 1:1 global fitting to obtain values for association rate (ka), dissociation rate (kd), and the equilibrium dissociation constant (KD).

[2] = biological target: T2, His-tagged recombinant human FcγRIIA (human, UniProt P12318 34-217, limits assumed)
T2 construct: Captured on a CM5 chip by the Biacore HIS capture kit; also called human FCγRIIA (CD32a); not shown: His tag
T2 sequence (looked up): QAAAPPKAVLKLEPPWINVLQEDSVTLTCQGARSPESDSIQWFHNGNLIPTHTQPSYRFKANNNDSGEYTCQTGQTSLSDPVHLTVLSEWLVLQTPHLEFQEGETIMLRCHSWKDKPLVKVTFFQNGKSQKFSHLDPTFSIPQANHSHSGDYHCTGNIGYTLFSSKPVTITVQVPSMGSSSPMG
Experimental: as §1, §2

[3] = biological target: T3, His-tagged recombinant human FcγRIIIA (human, UniProt P08637 17-208)
T3 construct: Captured on a CM5 chip by the Biacore HIS capture kit; also called human FCγRIIIA (CD16a); not shown: His tag
Experimental: as §1, §2

Measured: binding result

T3 sequence (P08637 17-208 limits assumed): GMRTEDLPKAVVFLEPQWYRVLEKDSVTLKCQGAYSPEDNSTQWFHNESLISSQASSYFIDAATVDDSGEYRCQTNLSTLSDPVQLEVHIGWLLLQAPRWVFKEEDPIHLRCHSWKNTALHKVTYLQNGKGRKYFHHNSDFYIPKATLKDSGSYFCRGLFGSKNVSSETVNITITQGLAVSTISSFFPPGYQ
T1 sequence (P12314 16-288 limits assumed): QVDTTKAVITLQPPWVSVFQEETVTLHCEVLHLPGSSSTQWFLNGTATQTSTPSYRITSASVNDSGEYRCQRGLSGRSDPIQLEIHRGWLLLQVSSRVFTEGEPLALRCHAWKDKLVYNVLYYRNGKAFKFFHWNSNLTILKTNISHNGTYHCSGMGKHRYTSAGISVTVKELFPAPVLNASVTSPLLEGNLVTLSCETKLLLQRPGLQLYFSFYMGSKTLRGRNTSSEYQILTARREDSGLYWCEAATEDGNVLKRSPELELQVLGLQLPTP

B1: 501c.S8D4 (antibody, human IgG1, kappa, L234A L235A)
heavy: not shown
light: DIQMTQSPSSVSASVGDRVTITCKASQIVGSNVAWYQQKPGKAPEPLIYSASYLYSGVPSRFSGSGSGTDFTLTISSLQPEDFATYYCQQYSSHPLTFGQGTKLEIKRTVAAPSVFIFPPSDEQLKSGTASVVCLLNNFYPREAKVQWKVDNALQSGNSQESVTEQDSKDSTYSLSSTLTLSKADYEKHKVYACEVTHQGLSSPVTKSFNRGEC
modifications: SYNtecan E (HydraSpace-PEG2-HydraSpace-Val-Ala-PABC linker, exatecan payload) conjugated at the 6-azido-GalNAc residue of the N-glycan of N297 (EU numbering); drug-to-antibody ratio 4
no binding: all assays above

B2: 501b.S8D4 (antibody, human IgG1, kappa, L234A L235A)
heavy: QVQLQESGPGLVKPSQTLSLTCTVSGYSITSGYSWHWIRQHPGKGLEWIGSIRYSGGTDYNPSLKSLVTISADTSKNQFSLKLSSVTAADTAVYYCARMTTAPWYPFDYWGQGTTVTVSSASTKGPSVFPLAPSSKSTSGGTAALGCLVKDYFPEPVTVSWNSGALTSGVHTFPAVLQSSGLYSLSSVVTVPSSSLGTQTYICNVNHKPSNTKVDKKVEPKSCDKTHTCPPCPAPEAAGGPSVFLFPPKPKDTLYITREPEVTCVVVDVSHEDPEVKFNWYVDGVEVHNAKTKPREEQYNSTYRVVSVLTVLHQDWLNGKEYKCKVSNKALPAPIEKTISKAKGQPREPQVYTLPPSRDELTKNQVSLTCLVKGFYPSDIAVEWESNGQPENNYKTTPPVLDSDGSFFLYSKLTVDKSRWQQGNVFSCSVMHEALHNHYTQKSLSLSPGK
light: B1 light
modifications: SYNtecan E (HydraSpace-PEG2-HydraSpace-Val-Ala-PABC linker, exatecan payload) conjugated at the 6-azido-GalNAc residue of the N-glycan of N297 (EU numbering); drug-to-antibody ratio 4
no binding: all assays above
